Measured values from patent US20250163116A1, “NEW METHOD TO TREAT INFECTIOUS DISEASES” (INSERM (INSTITUT NATIONAL DE LA SANTÉ ET DE LA RECHERCHE …, priority 2022, published 2025).

Tested on: Balb/c mice challenged with LPS
Assay: LPS-induced endotoxemia (sepsis) in mice
Type: in vivo
Conditions: for sepsis-associated mortality / survival rate: 2 μg/mouse i.v.
Method: FIG. 9: ANGPTL4 protects against LPS-induced endotoxemia by preventing vascular dysfunction and organ failure. A-B, Balb/c mice received LPS (5 mg kg-1, i.p.); 30 min after LPS challenge, mice received recombinant human ANGPTL4 (2 μg, intravenously), or vehicle as a control. A, A schematic representation of the protocol used. B, Survival curve (n=16 mice per group): **** P<0.0001; two-sided log-rank Mantel-Cox survival analysis. C,D, Balb/c mice received LPS (5 mg kg-1, i.p.); 30 min after LPS challenge, mice received nANGPTL4 (2 μg, intravenously), or vehicle as a control. C, A schematic representation of the protocol used. D, Survival curve (n=6 mice per group): ** P=0.0033; two-sided log-rank Mantel-Cox survival analysis. E, F, Balb/c mice received LPS (5 mg kg-1, i.p.); 30 min after LPS challenge, mice received Peptide 1 (2 μg, intravenously), or vehicle as a control. E, A schematic representation of the protocol used. F, Survival curve (n=6 mice per group): * P=0.0163; two-sided log-rank Mantel-Cox survival analysis. G, Balb/c mice received LPS (5 mg kg-1. i.p.): 30 min after LPS challenge, mice received recombinant human peptide P9 (2 μg. intravenously). or vehicle as a control. Survival curves (n=6 mice per group). *** P<0.001: two-sided log-rank Mantel-Cox survival analysis. H. Balb/c mice received LPS (4 mg kg-1. i.p.) together with anti-ANGPTL4 blocking antibody (10 μg kg-1. i.v) or vehicle as a control. 18 h after LPS challenge. mice were perfused with Evans blue for 1 h. were killed and brain were extracted. Quantification analysis of Evans blue extravasation (n=4 mice per group). Bars and error bars show the mean±s.e.m., respectively, from two independent experiments: *** P<0.001: NS, not significant (P>0.05) one-way ANOVA Tukey's multiple comparison test.
Female BALB/c mice, obtained from Janvier Labs, 9-10 weeks of age, were administered LPS at 5 mg/kg intraperitoneally and survival was monitored for 72 h (n=12 per group). BALB/c mice were randomly divided into 2 groups: LPS and LPS+Angptl4. Angptl4 (2 μg/mice) or vehicle (physiological saline solution) was administered intravenously 30 min after LPS challenge. In some experiments, blood serum, kidney and lung were collected at 18 h post-LPS challenge. Kidney and lungs were fixed in 4% PFA, embedded in paraffin, and 5-μm sections were cut from each block and stained with H&E. The stained sections were observed and acquired using a slide scanner (Lamina, Perkin Elmer). Analysis of the images was performed using ImageJ software (NIH).
Since severe endothelial dysfunction, leading to dysregulation of hemostasis and vascular dysfunction, is central to the progression to organ failure during sepsis, we analysed whether ANGPTL4 could play a protective role in sepsis, using a lipopolysaccharide (LPS)-induced endotoxemia (FIG. 9A). After LPS-challenge (5 mg kg-1, i.p.), all mice died within two days (FIG. 9B).

[1] = 18 h post-LPS challenge, data not shown

| Molecule | sepsis-associated mortality / survival rate (LPS 5 mg kg-1 i.p.) | LPS-induced acute lung injury (histopathology) [1] | LPS-induced renal haemorrhage [1] | mice surviving LPS challenge (LPS 5 mg kg-1 i.p., 2 μg/mouse i.v. 30 min after LPS, all control mice died within two days) [%] | overall weight loss (compared to vehicle-treated control groups) | body temperature (data not shown) |
| --- | --- | --- | --- | --- | --- | --- |
| nANGPTL4: N-terminal fragment of ANGPTL4, aa 26-164, SEQ ID NO: 24, purchased from R&D Systems (protein, nANGPTL4) GPVQSKSPRFASWDEMNVLAHGLLQLGQGLREHAERTRSQLSALERRLSACGSACQGTEGSTDLPLAPESRVDPEVLHSLQTQLKAQNSRIQQLFHKVAQQQRHLEKQHLRIQHLQSQFGLLDHKHLDHEVAKPARRK | reduced sepsis-associated mortality rate as efficiently as the full-length protein |  |  |  |  |  |
| cANGPTL4: C-terminal fragment of ANGPTL4, aa 164-406, fibrinogen-like domain, purchased from R&D Systems (protein, listed as Homo sapiens) RLPEMAQPVDPAHNVSRLHRLPRDCQELFQVGERQSGLFEIQPQGSPPFLVNCKMTSDGGWTVIQRRHDGSVDFNRPWEAYKAGFGDPHGEFWLGLEKVHSITGDRNSRLAVQLRDWDGNAELLQFSVHLGGEDTAYSLQLTAPVAGQLGATTVPPSGLSVPFSTWDQDHDLRRDKNCAKSLSGGWWFGTCSHSNLNGQYFRSIPQQRQKLKKGIFWKTWRGRYYPLQATTMLIQPMAAEAAS | did not significantly increased the survival rate |  |  |  |  |  |
| ANGPTL4: Recombinant human ANGPTL4 (Angiopoietin-like 4), full length, SEQ ID NO: 1, purchased from R&D Systems (protein, listed as Homo sapiens) MSGAPTAGAALMLCAATAVLLSAQGGPVQSKSPRFASWDEMNVLAHGLLQLGQGLREHAERTRSQLSALERRLSACGSACQGTEGSTDLPLAPESRVDPEVLHSLQTQLKAQNSRIQQLFHKVAQQQRHLEKQHLRIQHLQSQFGLLDHKHLDHEVAKPARRKRLPEMAQPVDPAHNVSRLHRLPRDCQELFQVGERQSGLFEIQPQGSPPFLVNCKMTSDGGWTVIQRRHDGSVDFNRPWEAYKAGFGDPHGEFWLGLEKVHSITGDRNSRLAVQLRDWDGNAELLQFSVHLGGEDTAYSLQLTAPVAGQLGATTVPPSGLSVPFSTWDQDHDLRRDKNCAKSLSGGWWFGTCSHSNLNGQYFRSIPQQRQKLKKGIFWKTWRGRYYPLQATTMLIQPMAAEAAS | markedly reduced sepsis-associated mortality rate | no pathological signs | no sign of haemorrhage | 80 | not significantly reduced | rapidly stabilized |
